Assay results reported in patent US6294648, “Protein having proteinase inhibitor activity” (Bayer Corporation, dated 2001).

Legend:
[1] = target: T1, Human neutrophil cathepsin G (human, UniProt P08311); experiment: enzyme inhibition; 30 min preincubation at 37 C; Suc-AAPF-AMC hydrolysis by fluorescence; Ki* corrected for substrate
T1 sequence: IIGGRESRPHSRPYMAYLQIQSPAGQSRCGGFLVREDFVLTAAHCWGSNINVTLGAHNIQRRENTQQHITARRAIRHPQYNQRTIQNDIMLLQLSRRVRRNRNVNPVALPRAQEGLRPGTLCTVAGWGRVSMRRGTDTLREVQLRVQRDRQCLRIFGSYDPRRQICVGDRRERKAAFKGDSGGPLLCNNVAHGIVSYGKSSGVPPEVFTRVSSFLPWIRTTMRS
Protocol: (§1) The BTL.009 concentration was determined by amino acid analysis. The concentration of human neutrophil elastase, cathepsin G, and proteinase 3 were based on the manufacturer's specifications. […] Hydrolysis of AMC-conjugated peptides was monitored on a Hitachi model F4500 fluorometer (excitation=370 nm, emission=432 nm) over the first 2 minutes of the reaction. Ki* values were determined from plots of fractional rate versus inhibitor concentration, which were fit by nonlinear regression analysis (Enzifitter™ by Bio soft, Cambridge UK) as described (44). Ki values were obtained by correction for the effect of substrate as described (44).

[2] = target: Human neutrophil elastase (human, UniProt P08246); experiment: enzyme inhibition; 30 min preincubation at 37 C; Suc-AAPV-AMC hydrolysis by fluorescence; Ki* corrected for substrate
Protocol: as §1

[3] = target: T2, Human neutrophil proteinase 3 (human, UniProt P24158); experiment: as above
T2 sequence: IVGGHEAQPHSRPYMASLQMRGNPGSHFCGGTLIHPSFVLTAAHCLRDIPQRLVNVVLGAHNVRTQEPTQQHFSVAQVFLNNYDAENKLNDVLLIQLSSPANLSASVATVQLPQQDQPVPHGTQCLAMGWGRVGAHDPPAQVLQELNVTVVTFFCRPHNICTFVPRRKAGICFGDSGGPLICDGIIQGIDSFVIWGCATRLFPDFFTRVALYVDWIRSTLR
Protocol: as §1

B1: BTL.009 (other)
chain: KQDVCEMPKETGPCLAYFLHWWYDKKDNTCSMFVYGGCQGNNNNFQSKANCLNTC
- Ki [1]: 1800 nM
- Ki [2]: 8 nM
- Ki [3]: 190 nM
